From publication PMC4439613, “TRIP13 is a protein-remodeling AAA+ ATPase that catalyzes MAD2 conformation switching” (eLife, 2015)

T1: His6-tagged M. musculus p31(comet) (M. musculus, UniProt Q9DCX1 1-276)
T1 construct: p31(comet), M. musculus, full length; The same construct as m12 with the TEV-cleavable His6 tag left on for the Ni2+ pull-down; also called His6-tagged p31(comet); source: E. coli Rosetta 2 (DE3) pLysS, purified; not shown: His6, N-terminal, kept
T1 sequence (looked up): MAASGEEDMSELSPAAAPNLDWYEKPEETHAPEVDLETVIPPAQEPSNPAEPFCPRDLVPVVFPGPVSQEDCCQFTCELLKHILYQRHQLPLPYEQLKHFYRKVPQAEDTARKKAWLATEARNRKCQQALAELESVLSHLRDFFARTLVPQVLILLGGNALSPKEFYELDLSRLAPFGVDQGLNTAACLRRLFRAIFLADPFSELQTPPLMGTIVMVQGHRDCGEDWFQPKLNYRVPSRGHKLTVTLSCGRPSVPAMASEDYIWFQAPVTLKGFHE

T2: M. musculus p31(comet) (wild type, tag cleaved) (M. musculus, UniProt Q9DCX1 1-276)
T2 construct: p31(comet), M. musculus, full length; also called wild-type p31(comet); source: E. coli Rosetta 2 (DE3) pLysS, purified (Ni-NTA, Hitrap Q ion exchange, Superdex 200 SEC); not shown: His6, N-terminal, cleaved
T2 sequence (looked up): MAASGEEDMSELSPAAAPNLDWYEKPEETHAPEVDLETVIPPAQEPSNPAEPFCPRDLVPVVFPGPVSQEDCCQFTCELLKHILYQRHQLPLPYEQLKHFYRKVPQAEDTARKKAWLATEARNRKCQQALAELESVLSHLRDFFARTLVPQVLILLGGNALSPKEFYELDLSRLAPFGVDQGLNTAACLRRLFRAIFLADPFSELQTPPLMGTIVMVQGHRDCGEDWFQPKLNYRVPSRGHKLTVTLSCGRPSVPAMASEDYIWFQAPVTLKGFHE


How the values were obtained:
[1] = substrate: Nc1ncnc2c1ncn2[C@@H]1O[C@H](COP(=O)(O)OP(=O)(O)OP(=O)(O)O)[C@@H](O)[C@H]1O; experiment: enzyme-coupled ATPase assay (pyruvate kinase / lactate dehydrogenase, NADH); assay type: biochemical, Mus musculus; details: basal, pH 8.5, 27 °C, 10 mM MgCl2, 200 mM NaCl, kcat per hexamer
[2] = target: the molecule itself; experiment: SEC-MALS; single purified proteins on Superdex 200 10/300 GL; PCH-2 and TRIP13 with and without added nucleotides
[3] = target: T1, His6-tagged M. musculus p31(comet); experiment: pull-down; Ni2+ pull-down: 300 pmol His6-tagged p31(comet) with 450 pmol untagged MAD2 in 50 μl (20 mM Tris-HCl pH 7.5 or 8.5, 200 mM NaCl, 20 mM imidazole, 0.1% NP-40), 20°C, Ni-NTA magnetic beads, Coomassie; details: both partners purified
[4] = target: T2, M. musculus p31(comet) (wild type, tag …); experiment: SEC; as a8 but mixtures of two of the three proteins (one left out); details: both partners purified

binding result [3] | binding result [4] | Binder | Km [1] | kcat [1] | stoichiometry N [2]
 |  | Mus musculus TRIP13 (enzyme, M. musculus, UniProt Q3UA06 1-432, looked up, TRIP13, M. musculus, full length; Mixture of oligomeric states from monomer to hexamer by SEC-MALS; also called wild-type TRIP13; source: E. coli Rosetta 2 (DE3) pLysS, purified (Ni-NTA, Hitrap Q ion exchange, Superdex 200 SEC); not shown: His6, N-terminal, cleaved) MDEAVGDLKQALPCVAESPAVHVEVLQRSGSTAKKEDIKSSVYRLLNRHNIVFGDYVWTEFDDPFLSRNVQSVSIVDTELKAKDPQPIDLSACTIALHIFQLNEEGPSSENLDEETENIIAASHWVLPAAEFHGLWDSLVYDVEVKSHLLDYVMTTVLFSDKNVDSNLITWNRVVLLHGPPGTGKTSLCKALAQKLTIRLSSRYRYGQLIEINSHSLFSKWFSESGKLVTKMFQKIQDLIDDKEALVFVLIDEVESLTAARNACRAGAEPSDAIRVVNAVLTQIDQIKRHSNVVILTTSNITEKIDVAFVDRADIKQYIGPPSAAAIFKIYLSCLEELMKCQIIYPRQQLLTLRELEMIGFIENNVSKLSLLLSEISRKSEGLSGRVLRKLPFLAHALYIQAPSVTIEGFLQALSLAVDKQFEEKKKLSAYV | 13.9 ± 0.6 µM | 8.7 +/- 0.1 ATP min^-1 | ≤ 6
 |  | TRIP13 (Mus musculus; W221A) (protein, full-length, N-terminal His6 tag removed with TEV protease, E. coli Rosetta 2 (DE3) pLysS) MDEAVGDLKQALPCVAESPAVHVEVLQRSGSTAKKEDIKSSVYRLLNRHNIVFGDYVWTEFDDPFLSRNVQSVSIVDTELKAKDPQPIDLSACTIALHIFQLNEEGPSSENLDEETENIIAASHWVLPAAEFHGLWDSLVYDVEVKSHLLDYVMTTVLFSDKNVDSNLITWNRVVLLHGPPGTGKTSLCKALAQKLTIRLSSRYRYGQLIEINSHSLFSKAFSESGKLVTKMFQKIQDLIDDKEALVFVLIDEVESLTAARNACRAGAEPSDAIRVVNAVLTQIDQIKRHSNVVILTTSNITEKIDVAFVDRADIKQYIGPPSAAAIFKIYLSCLEELMKCQIIYPRQQLLTLRELEMIGFIENNVSKLSLLLSEISRKSEGLSGRVLRKLPFLAHALYIQAPSVTIEGFLQALSLAVDKQFEEKKKLSAYV | 24.4 ± 1.3 µM | 18.7 +/- 0.2 ATP min^-1 | 
 |  | M. musculus TRIP13^E253Q (enzyme, UniProt Q3UA06 1-432, looked up, TRIP13, M. musculus, full length, Walker B mutation E253Q; also called Walker B mutant; ATP hydrolysis-defective TRIP13; source: E. coli Rosetta 2 (DE3) pLysS, purified (Ni-NTA, Hitrap Q ion exchange, Superdex 200 SEC); not shown: His6, N-terminal, cleaved) MDEAVGDLKQALPCVAESPAVHVEVLQRSGSTAKKEDIKSSVYRLLNRHNIVFGDYVWTEFDDPFLSRNVQSVSIVDTELKAKDPQPIDLSACTIALHIFQLNEEGPSSENLDEETENIIAASHWVLPAAEFHGLWDSLVYDVEVKSHLLDYVMTTVLFSDKNVDSNLITWNRVVLLHGPPGTGKTSLCKALAQKLTIRLSSRYRYGQLIEINSHSLFSKWFSESGKLVTKMFQKIQDLIDDKEALVFVLIDQVESLTAARNACRAGAEPSDAIRVVNAVLTQIDQIKRHSNVVILTTSNITEKIDVAFVDRADIKQYIGPPSAAAIFKIYLSCLEELMKCQIIYPRQQLLTLRELEMIGFIENNVSKLSLLLSEISRKSEGLSGRVLRKLPFLAHALYIQAPSVTIEGFLQALSLAVDKQFEEKKKLSAYV |  |  | 6
binds |  | M. musculus MAD2 (wild type) (natural protein, UniProt Q9Z1B5 1-205, looked up, MAD2, M. musculus, full length; Predominantly dimeric by SEC-MALS; also called WT MAD2; wild-type MAD2 dimer; source: E. coli Rosetta 2 (DE3) pLysS, purified (Ni-NTA, Hitrap Q ion exchange, Superdex 200 SEC); not shown: His6, N-terminal, cleaved) MAQQLAREQGITLRGSAEIVAEFFSFGINSILYQRGIYPSETFTRVQKYGLTLLTTTDPELIKYLNNVVEQLKEWLYKCSVQKLVVVISNIESGEVLERWQFDIECDKTAKEEGVRREKSQKAIQDEIRSVIRQITATVTFLPLLEVSCSFDLLIYTDKDLVVPEKWEESGPQFITNCEEVRLRSFTTTIHKVNSMVAYKTPVND |  |  | 2
 | binds | M. musculus C-MAD2^R133A (closed conformer of the monomeric MAD2 R133A variant) (natural protein, UniProt Q9Z1B5 1-205, looked up, MAD2, M. musculus, full length, dimerization-defective mutation R133A; the closed conformer, purified apart from the open one by anion exchange; also called closed MAD2; source: E. coli Rosetta 2 (DE3) pLysS, purified; closed conformer peak separated by anion exchange; not shown: His6, N-terminal, cleaved) MAQQLAREQGITLRGSAEIVAEFFSFGINSILYQRGIYPSETFTRVQKYGLTLLTTTDPELIKYLNNVVEQLKEWLYKCSVQKLVVVISNIESGEVLERWQFDIECDKTAKEEGVRREKSQKAIQDEIRSVIAQITATVTFLPLLEVSCSFDLLIYTDKDLVVPEKWEESGPQFITNCEEVRLRSFTTTIHKVNSMVAYKTPVND |  |  | 
